30 molecules from patent publication US20250340608A1 (PROTAGONIST THERAPEUTICS, published 2025) can be followed below.

The target in the test is T1, human ferroportin (SLC40A1) fused in frame with GFP, stably expressed in HEK293 cells (human, UniProt Q9NP59 1-571).
T1 sequence (looked up): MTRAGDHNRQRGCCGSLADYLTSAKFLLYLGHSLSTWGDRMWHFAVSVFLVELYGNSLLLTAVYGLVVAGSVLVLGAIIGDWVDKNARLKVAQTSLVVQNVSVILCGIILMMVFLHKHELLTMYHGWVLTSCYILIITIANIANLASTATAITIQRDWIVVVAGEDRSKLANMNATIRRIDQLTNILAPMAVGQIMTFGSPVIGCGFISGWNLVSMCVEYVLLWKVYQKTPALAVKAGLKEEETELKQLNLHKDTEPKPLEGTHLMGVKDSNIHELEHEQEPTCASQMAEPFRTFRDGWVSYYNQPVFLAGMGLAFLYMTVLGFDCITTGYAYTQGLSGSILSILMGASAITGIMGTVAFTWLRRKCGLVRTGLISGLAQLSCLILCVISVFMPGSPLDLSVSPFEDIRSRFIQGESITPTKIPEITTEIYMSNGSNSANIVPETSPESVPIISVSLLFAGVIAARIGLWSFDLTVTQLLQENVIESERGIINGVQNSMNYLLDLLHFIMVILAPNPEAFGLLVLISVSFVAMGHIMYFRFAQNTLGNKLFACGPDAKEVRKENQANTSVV
The test can be described thus: cell-based or functional assay.

Primed or numbered codes have the meaning given here. Side chains are listed from the residue outwards. * marks the point of attachment. PEG8″ = PEG8 spacer conjugated to the Lys side chain; PEG8′ = PEG8 conjugated to the Lys side chain; Cyclohexanecarbonyl = O=C(C1CCCCC1)*; Palmitoyl = CCCCCCCCCCCCCCCC(=O)*; Me3Gly = C[N+](C)(C)CC(=O)*; Isovaleryl = CC(C)CC(=O)*; PEG2′ = not defined here; PEG3′ = not defined here; PEG4′ = not defined here

B1: Compound 204 (peptide)
peptide: H-DTHFPCIK(Isovaleryl)FGPRSKGWVCK-NH2
modifications: cysteine pairing not given here
In the case of B1, the “Potency EC50” value was more than 300 nM.

B2: Compound 159 (peptide)
peptide: Isovaleryl-DTHFPCIKFGPRSKGWVCK(Me3Gly)-NH2
modifications: cysteine pairing not given here
Take B2: the “Potency EC50” value is 17 nM.

B3: Compound 183 (peptide)
peptide: Isovaleryl-DTHFPCIKFEPRSKGWCK-NH2
modifications: not fully specified (bridges); cysteine pairing not given here
Consider B3, for which the “Potency EC50” value is 17 nM.

B4: Compound 211 (peptide)
peptide: H-DTHFPCIKFGPK([PEG3′-Isovaleryl])SKGWVCK-NH2
modifications: cysteine pairing not given here
Take B4: the “Potency EC50” value was more than 300 nM.

B5: Compound 203 (peptide)
peptide: Isovaleryl-DTHFPCIKFGPRSKGWVCK([PEG3′-Palmitoyl])-NH2
modifications: cysteine pairing not given here
B5: the “Potency EC50” value came out at 4 nM.

B6: Compound 154 (peptide)
peptide: Isovaleryl-DTHFPCIKFGPRSKGWTCK-NH2
modifications: cysteine pairing not given here
As for B6, the “Potency EC50” value turned out to be 18 nM.

B7: Compound 176 (peptide)
peptide: Isovaleryl-DTHFPICIFGPRSK(PEG8″)GWVC-NH2
modifications: not fully specified (bridges); cysteine pairing not given here
In the case of B7, the “Potency EC50” value came to 6 nM.

B8: Compound 199 (peptide)
peptide: Isovaleryl-DTHFPCIK([PEG3′-Palmitoyl])FGPRSKGWVCK-NH2
modifications: cysteine pairing not given here
For B8, the “Potency EC50” value came to 7 nM.

B9: Compound 164 (peptide)
peptide: H-VDTHFPCIKFGPRSKGWVCK-NH2
modifications: cysteine pairing not given here
B9: the “Potency EC50” value came out at 146 nM.

B10: Compound 212 (peptide)
peptide: H-DTHFPCIKFGPRSK([PEG3′-Isovaleryl])GWVCK-NH2
modifications: cysteine pairing not given here
On to B10, for which the “Potency EC50” value was more than 300 nM.

B11: Compound 210 (peptide)
peptide: DTHFPCIKFKPRSKGWVCK
modifications: PEG3-IVA on side chain of Lys 10; C-terminal amide
On to B11, for which the “Potency EC50” value was found to be 457 nM.

B12: Compound 179 (peptide)
peptide: Isovaleryl-DTHFPCIIFGPRSRGWVCK(PEG4′)-NH2
modifications: not fully specified (bridges); cysteine pairing not given here
Regarding B12, the “Potency EC50” value turned out to be 4 nM.

B13: Compound 201 (peptide)
peptide: Isovaleryl-DTHFPCIKFGPK([PEG3′-Palmitoyl])SKGWVCK-NH2
modifications: cysteine pairing not given here
In the case of B13, the “Potency EC50” value was 4 nM.

B14: Compound 205 (peptide)
peptide: DTHFPCIKFKPRSKGWVCK
modifications: not fully specified; IVA on side chain of Lys 10; C-terminal amide
In the case of B14, the “Potency EC50” value was more than 300 nM.

B15: Compound 168 (peptide)
peptide: Cyclohexanecarbonyl-DTHFPCIKFGPRSKGWVCK-NH2
modifications: not fully specified (bridges); cysteine pairing not given here
B15: the “Potency EC50” value worked out at 30 nM.

B16: Compound 193 (peptide)
peptide: Isovaleryl-DTHFPCIKFC-NH2
modifications: cysteine pairing not given here
With B16, the “Potency EC50” value was 80 nM.

B17: Compound 177 (peptide)
peptide: Isovaleryl-DTHFPICIFGPRSK(PEG4′)GWVC-NH2
modifications: not fully specified (bridges); cysteine pairing not given here
Consider B17, for which the “Potency EC50” value is 6 nM.

B18: Compound 194 (peptide)
peptide: Isovaleryl-DTHFPCIK(Palmitoyl)FGPRSKGWVCK-NH2
modifications: cysteine pairing not given here
For B18, the “Potency EC50” value is 4 nM.

B19: Compound 202 (peptide)
peptide: Isovaleryl-DTHFPCIKFGPRSK([PEG3′-Palmitoyl])GWVCK-NH2
modifications: cysteine pairing not given here
In the case of B19, the “Potency EC50” value is 3 nM.

B20: Compound 209 (peptide)
peptide: H-DTHFPCIK([PEG3′-Isovaleryl])FGPRSKGWVCK-NH2
modifications: cysteine pairing not given here
For the molecule B20, the “Potency EC50” value came to 342 nM.

B21: Compound 178 (peptide)
peptide: Isovaleryl-DTHFPCIIFGPRSRGWVCK(PEG8″)-NH2
modifications: not fully specified (bridges); cysteine pairing not given here
As to B21, the “Potency EC50” value is 3 nM.

B22: Compound 180 (peptide)
peptide: Isovaleryl-DTHFPCIIFGPRSRGWVCK(PEG2′)-NH2
modifications: not fully specified (bridges); cysteine pairing not given here
B22: the “Potency EC50” value was determined as 9 nM.

B23: Compound 172 (peptide)
peptide: Isovaleryl-DTHFPCIIFGPRSKGWECK-NH2
modifications: not fully specified (bridges); cysteine pairing not given here
Take B23: the “Potency EC50” value was 15 nM.

B24: Compound 200 (peptide)
peptide: DTHFPCIKFKPRSKGWVCK
modifications: N-terminal isovaleric acid; PEG3-Palm on side chain of Lys 10; C-terminal amide
Consider B24, for which the “Potency EC50” value came out at 6 nM.

B25: Compound 213 (peptide)
peptide: H-DTHFPCIKFGPRSKGWVCK([PEG3′-Isovaleryl])-NH2
modifications: cysteine pairing not given here
On to B25, for which the “Potency EC50” value was 233 nM.

B26: Compound 188 (peptide)
peptide: Isovaleryl-DTHFPCIKFGPRSCK-NH2
modifications: cysteine pairing not given here
Turning to B26, the “Potency EC50” value came to 30 nM.

B27: Compound 181 (peptide)
peptide: Isovaleryl-DTHFPCIKFEPRSKGWVCK-NH2
modifications: not fully specified (bridges); cysteine pairing not given here
With B27, the “Potency EC50” value was 15 nM.

B28: Compound 157 (peptide)
peptide: Isovaleryl-DTHFPCIKFGPRSK(Me3Gly)GWVCK-NH2
modifications: cysteine pairing not given here
Turning to B28, the “Potency EC50” value was 18 nM.

B29: Compound 153 (peptide)
peptide: Isovaleryl-DTHFPCIKFGPRSKGWVCK(PEG8′)-NH2
modifications: cysteine pairing not given here
Take B29: the “Potency EC50” value was found to be 18 nM.

B30: Compound 161 (peptide)
peptide: {Isovaleryl-PEG3′}-DTHFPCIKFGPRSKGWVCK-NH2
modifications: cysteine pairing not given here
Turning to B30, the “Potency EC50” value is 666 nM.
